Laboratory results from the DeepSol protein solubility set.

Assay: soluble on expression in E. coli; label from the status in PepcDB or PDB records

Sequence | soluble on expression in E. coli
SNIEALADKVRTYLEAGQIDGFVRTLRARPEAGGKVPVFVFHPAGGSTVVYEPLLGRLPADTPMYGFERVEGSIEERAQQYVPKLIEMQGDGPYVLVGWSLGGVLAYACAIGLRRLGKDVRFVGLIDAVRAGEEIPQTKEEIRKRWDRYAAFAEKTFNVTIPAIPYEQLEELDDEGQVRFVLDAVSQSGVQIPAGIIEHQRTSYLDNRAIDTAQIQPYDGHVTLYMADRYHDDAIMFEPRYAVRQPDGGWGEYVSDLEVVPIGGEHIQAIDEPIIAKVGEHMSRA | soluble
VPGPEYKVAILTVSDTVSAGAGPDRSGPRAVSVVDSSSEKLGGAKVVATAVVPDEVERIKDILQKWSDVDEMDLILTLGGTGFTPRDVTPEATKKVIERETPGLLFVMMQESLKITPFAMLARSAAGIRGSTLIINMPGNPNAVAECMEALLPALKHALKQIKGDKR | soluble
MAHHHHHHMKRWRTANLFTPAEVQHAFAALHRNAEALYSVSGTSSPLGPFVCRRGGARRHRRDHIELPLRHMYEAKTVYEQLPVEVRLICAGLYEAALGYAQEALREPGVSSAARDGILSNLGRNSVLRVLRYPAGSGCRPHVDPGLCTALLVGSAGGLEMSTTDAVLTPFASGPGHNTAHFVSSPTSMRGEAATMPGTLPHWEPVLTAHTGEAVVMAGNMLGAVSGGALPGVLHRVRRDWVAETPRTDGQRSPPLHAACVGGGADAEVDAGSGVFRFNVIVELRPAHAKRWYAATSGQSQLSSASSPSSLA | not soluble
MGSDKIHHHHHHMKTKHILFGIFISSAVTSCNSIKGSGNVVTSIRPVQEFSGIISSGSFNMYLTQSAVQEVKIIADDNVLQYIETNVRDGILTVTFKDKVHIKNSTRLDIYVSGPVIEKINLEGSGNIQTTNRLHSNNLVLVLNGSGKMVAEDACETAIVQLNGSGNITLTGKAKNQTASVSGSGNVNASGFTTENTTASLSGSGSIGLYATESLHASLSGSGSIRYSGNPASVKKEVSGSGMVESR | not soluble
ILPQPDVRVNQVGYLPEGKKVATVVCNSTQPVKWQLKNAAGVVVLEGYTEPKGLDKDSQDYVHWLDFSDFATEGIGYYFELPTVNSPTNYSHPFDIRKDIYTQMKYDALAFFYHKRSGIPIEMPYAGGEQWTRPAGHIGIEPNKGDTNVPTWPQDDEYAGIPQKNYTKDVTGGWYDAGDHGKYVVNGGIAVWTLMNMYERAKIRGLDNWGPYRDGGMNIPEQNNGYPDILDEARWEIEFFKKMQVTEKEDPSIAGMVHHKIHDFRWTALGMLPHEDPQPRYLRPVSTAATLNFAATLAQSARLWKDYDPTFAADCLEKAEIAWQAALKHPDIYAEYTPGSGGPGGGPYNDDYVGDEFYWAACELYVTTGKDEYKNYLMNSPHYLEMPAKMGENGGANGEDNGLWGCFTWGTTQGLGTITLALVENGLPATDIQKARNNIAKAADRWLENIEEQGYRLPIKQAEDERGGYPWGSNSFILNQMIVMGYAYDFTGDSKYLDGMFDGISYLLGRNAMDQSYVTGYGERPLQNPHDRFWTPQTSKRFPAPPPGIISGGPNSRFEDPTINAAVKKDTPPQKCFIDHTDSWSTNEITVNWNAPFAWVTAYLDQYTD | soluble
MAHHHHHHMRAIQTLFIHSDKRVFLFPNTSNRTKYPSLITFPKIVLYSTPEAKRYRCVQKYLSTDFSSCSDNPHEILGRILRVPQSRSSMRKMLFTIPGIDPIQGILNGSRVCNELIRIKDVTWNRPHLIHAFFDHLPVFRFFLRSLVTLHPRTHRLHIHLVRAIHDDSRRSFLFLSFIIVAHAWR | not soluble
MLKPLGDRVVIELVQAEEKTASGIVLPDTAKEKPQEGKVIAVGTGRVLENGERVALEVAAGDLIIFSKYAGTEVKYEGTDYLILRESDILAVIG | not soluble
AIAENSSKEDYKIQSFDLETQKLLKTALKDPGSVDLEKVSSVIVDQSLKDQVFSREAGRICYTIVQAEAKQTNGSVFRRNLLNRLQQEFKAREETRKRSTQEWVCLVSFICNIFDYLKVNNMPMVALVHPVYDCLFRLAQSDALKNEEEVDCLVLQLHRIGDQLEKMNVQLMDELFNLLRDGFLLQEDLSSMGRLLLLEILEFRAGGWKLSDTAQKYYYSEVTD | soluble
MSYYHHHHHHLESTSLYKKAGLENLYFQGVRQYKIHTNLDGTDDKVWDVTNGKVRFYQPSNLGLQSTNNIWQSNGIGVMGTRSITQPQIEFKLETFGESLEENYQLMKDFVNDILSKKFVTLEYQTEIFQVYADLALADVTKTEGYGKNGTFSEKITFDIITKWYTYENLTFDKIQNGKVIAGMSKIYGGTAPGNYKYIKGTSYTYYGESDIDRLSRWDIKEEIFSFMGILYPKLPKTPAGVRFLDDIGNEYTAIVFKTEQVQDYILINTDVNDETYQGWKGTTALNLFPVMDFERYRTRIIEKGQMELINLSKAEFKIKRKADFV | soluble
MPTYEELSQAVFEGDEAQVVELTRSLLSGGAEPLEVINKGLIAGMDRVGVLFKNNEMFVPEVLMSANAMNAGVEVVKQSQQAFDMPSVGKIVLGTVKGDLHDIGKNLVAMMLESGGFTVYNLGVDIEPGKFVEAVKKYQPDIVGMSALLTTTMMNMKSTIDALIAAGLRDRVKVIVGGAPLSQDFADEIGADGYAPDAASATELCRQLLE | soluble
MGSDKIHHHHHHMLAICQLVKMKRICFYLKMQKGYMALNKKLKGDGEVLKDSFLAGAGKAKIVFSQDDFPIKQFTGIHDNLYIRVLLIDSNQRFAFVSIDLTSLTKDRIDFYKSLIHQLTSIDEGNIWVSVTHTFSAPHIPLESQKDDEEKIISMMLFKTSAALREAINQALLSMKPADIGFSYSSCPLNINRNIPTRLGWWLGRNDDGYSNHDVRTVTLKQENNEIISILYNFDVQASVMDNVSTKSGELLISSDLVGKASSDIENTFGKNSVAIFLPGSAGDQAPIFKGSNWKIMKNNRLVCSSIHEEAYSLVDQLGVKLSQSVQRAVFKTEKFADNCEIKINHYSVYLPEQRVKYSTKALRPSKKYQFEKPVIHFLSLLIFCT | not soluble
MLTVGILGGGQLGWMTILEGRKLGFKFHVLEDKENAPACRVADRCFRTGQISEFVDSCDIITYEFEHIKDEVLEKCESKLIPNPQALYVKKSRIREKLFLKKHGFPVPEFLVIKRDEIIDALKSFKLPVVIKAEKLGYDGKGQYRIKKLEDANQVVKNHDKEESFIIEEFVKFEAEISCIGVRDREGKTYFYPQPFNKHEEGILIYNYVPYAKLKEAEEITKRLMELLDIVGVFTVEFFLLKDGRVLINEFAPRVHNTGHWTLDGAYTSQFENLLRAITEMPLGSTELKLPSGMVNILGKSYEEIPLKEILSVEGAKLYWYGKEKKPRRKVGHVNVVGRSKEEVVEKVERVFTLLKGSREKLPAP | soluble
MNSSPAGTPSPQPSRANGNINLGPSANPNAQPTDFDFLKVIGKGNYGKVLLAKRKSDGAFYAVKVLQKKSILKKKEQSHIMAERSVLLKNVRHPFLVGLRYSFQTPEKLYFVLDYVNGGELFFHLQRERRFLEPRARFYAAEVASAIGYLHSLNIIYRDLKPENILLDCQGHVVLTDFGLCKEGVEPEDTTSTFCGTPEYLAPEVLRKEPYDRAVDWWCLGAVLYEMLHGLPPFYSQDVSQMYENILHQPLQIPGGRTVAACDLLQSLLHKDQRQRLGSKADFLEIKNHVFFSPINWDDLYHKRLTPPFNPNVTGPADLKHFDPEFTQEAVSKSIGCTPDTVASSSGASSAFLGFSYAPEDDDILDC | soluble
MSTKLYYIYDPMCSWCWGYRPVWDLLQQHLPKSIDVEYVAGGLAPDSDSAMPIDQQQMIQNHWRTIEQKLGTKFNYDFWRENTARRSTYNACRAAIAAHKQSCQKAMIDAIQQAYYLRALNPSDVDVLVSVAKELSEQTSPTLDVAQFIVDINSSETNKELAKQVTLARELTQQGFPSLVLDVDGVIQQIPLDYSDYKTTLAYIIKKTS | not soluble
MANSAGSMIKEFCAENFTKIPQAIQKGANRIELCDNLAVGGTTPSTGVIEEVLAYAGEHSVPVMTIIRPRGGNFVYNDIELKIMHTDLIEAKKLGTDGIVIGCLTEDGWLDEEALDLFIETAEGLQITFHMAFDALSKENQFKAIDWLAERGVTRILTHGGPAGTPIEDNFDHLKELIVYADQRILILPGGGISTENVQTVMDTLKVTEVHGTKIVLEHHHHHH | not soluble
NLLDDAVKRISEDPPCKCPTKFCVERLSQGRYRVGEKILFIRMLHNKHVMVRVGGGWETFAGYLLKHDPCRMLQISRVDGKTSP | soluble
MSKLAIIAGDGIGPEVTAEAVKVLDAVVPGVQKTSYDLGARRFHATGEVLPDSVVAELRNHDAILLGAIGDPSVPSGVLERGLLLRLRFELDHHINLRPARLYPGVASPLSGNPGIDFVVVREGTEGPYTGNGGAIRVGTPNEVATEVSVNTAFGVRRVVADAFERARRRRKHLTLVHKTNVLTFAGGLWLRTVDEVGECYPDVEVAYQHVDAATIHMITDPGRFDVIVTDNLFGDIITDLAAAVCGGIGLAASGNIDATRANPSMFEPVHGSAPDIAGQGIADPTAAIMSVALLLSHLGEHDAAARVDRAVEAHLATRGSERLATSDVGERIAAAL | soluble
MEKIRQPTHAGSWYTDNPTKLSSDLEEWLNATGLTKSPDVRGVIAPHAGYSYSGRAAAYAFANIDPTNISRIFLLGPSHHFYTPKCALSTATVYKTPIGNLPVDVEMIKEIRAMGKFGMMDLRVDEAEHSMEMHLPYLAKVFEGNNVKVVPILVGAVSPENEAMYGELLAKYVDDPKNFFSVSSDFCHWGSRFNYMHYDNTHGAIHKSIEALDKKGMDIIETGDPDAFKKYLLEFENTICGRHPISIFLHMLKHSSSKIKINFLRYEQSSQCQTMRDSSVSYASAAAKLET | not soluble
MGSDKIHHHHHHMEEKKALIIVDVQKAFDDKKWGERNNVKAEENISKILELWREKGWTVIYIQHTSDKPHSLFHPKNEGFAIKEIVKPMDEEVIITKTVNSSFIGTNLEEFLKLNEITTVVITGLTTPHCVSTTTRMSGNLGFDTYLISDATAAFGMRDQNDTYYDAATIHNISLATLHDEFATILTTDQLINDFIKTH | not soluble
MTYIIREMKQEDIHAVQSVAKIAWHDTYEGIIPREIQDSFLDEAYSDEKMKYRLKNTHLFVAEEEGEVIGFANFSPVRLQNEAELGAIYLLPDQQGKGIGSALLQRGIKALNGIRKLYIHVEAANEKGKRFYEAKGFAELEQFEEDFEGHMMQTVRMVLYV | not soluble
MGSDKIHHHHHHMSAFYDLYETPDPNDTGEKQPLHARIVPSGTYSKKDFIERVSRHQPFPHNIIEGVLGAVVDELAEALADGYIVELGELGHFSISLKCTHKVMTKKEIRAESIRFDNVHLRTSKEFKKKIKREIELERVENSNEKTHNAKISIEDRLQMLQEFLKKNGGITRIEYSRLTGLPRLKAIDDLNTFIKEGTLRKRGAGRTVFYVWKQKE | not soluble
MPGTKQVNVGSLKVGQYVMIDGVPCEIVDISVSKPGKHGGAKARVVGIGIFEKVKKEFVAPTSSKVEVPIIDRRKGQVLAIMGDMVQIMDLQTYETLELPIPEGIEGLEPGGEVEYIEAVGQYKITRVIGGK | soluble
MSLATIYDVSVLAGVSLATVSRVMNKNTNVSEKTKKKVQDAMDQLGYRPSSIAQSLASNRSNSIGVLVSQLDGPFYGPMMTEIETALRDANKHVIIAAGHSNETQEKEAVEFLLDRGCDALILDVEALSDEYIINLCQQSTPIVLINRFISEIEERCIYLNNALGGYLATKHVLSQGHTQLAYIAGPQFKSDARERLEGHKQALAEFEVTFDETLFFEGNFREPSGVSAMEYLLKQDKQFTCVISANDQMASGAIAVSLERDISVPKQLSFIGYDNSPFPKYISPKLSTVSNPIQEMGKMAALWVLKNVYNKPDLSIVNTFTPQLILRDSVKEGHHHHHH | soluble
HGTSDATLLKGVGHLYGTALPVGGLGTRSVLTAHSGIQKSTFFDNLEKVKKGDAIYVRNIGETLKYQVRDIEIIRPAEIDRIQPIPDRDLITLVTCTPYGINTHRLLVTAERVPMEPGEADRAFAGDGIVWQWWMK | not soluble
